Experimental data published in patent US20200405833A1 (AFFIMED, published 2020).

Key:
human EGFR on cells [1] = target: T1, human EGFR on cells (human, UniProt P00533 25-1210); assay: flow cytometry on EGFR-expressing A-431 cells, 37° C.
T1 construct: whole, on cells; also called EGFR+ CHO cells

huCD16A^RV-His = target: T2, huCD16A^RV-His (human); assay: ELISA, coated EGFR/CD16A Bi-scFv-Fc, soluble huCD16A^RV-His titrated (the concentration axis is that of the antigen), Penta-HIS-HRP per paragraph 126
T2 construct: soluble, His-tagged; also called CD16-His antigen
Procedure: (§1) 96-well ELISA plates (Immuno MaxiSorp; Nunc) were coated overnight at 4° C. with recombinant antigen or antibodies in 100 mM Carbonate-bicarbonate buffer. […] After a blocking step with 3% (w/v) skim milk powder (Merck) dissolved in PBS, serial dilutions of the different antibodies or soluble antigens in PBS containing 0.3% (w/v) skim milk powder were incubated on the plates for 1.5 h at room temperature. After washing three times with 300 μL per well of PBS containing 0.1% (v/v) Tween 20, plates were incubated with detection antibodies for 1 h at room temperature. For the detection of His-tagged analytes, Penta-HIS-HRP (Qiagen) was used at 1:3000 dilution. […] After washing three times with 300 μL per well of PBS containing 0.1% (v/v) Tween 20, plates were incubated with Tetramethylbenzidine (TMB) substrate (Seramun) until colour development was clearly visible. The reaction was stopped through the addition of 100 μL per well of 0.5 M H₂SO₄. The absorbance was measured at 450 nm using a multilabel plate reader (Victor, Perkin Elmer).

human EGFR on cells [2] = target: T1, human EGFR on cells; assay: cell-based or functional assay
[3] = target: T3, CD16A on primary human NK-cells (human, UniProt P08637 17-254); assay: flow cytometry on primary human NK-cells, 37°C, with 10 mg/mL polyclonal human IgG (Gammanorm); mean of 2 experiments
T3 construct: whole, on cells; also called FcγRIIIA
Procedure: (§2) After the last staining step, the cells were washed again and resuspended in 0.2 mL of FACS buffer containing 2 μg/mL propidium iodide (PI) (Sigma, cat.: P4170) in order to exclude dead cells. The fluorescence of 2-5×10³ living cells was measured using a Millipore Guava EasyCyte flow cytometer (Merck Millipore, Schwalbach, Germany). Mean fluorescence intensities of the cell samples were calculated using Incyte software (Merck Millipore, Schwalbach, Germany). After subtracting the fluorescence intensity values of the cells stained with the secondary and tertiary reagents alone, the values were used for non-linear regression analysis using the GraphPad Prism software (GraphPad Prism version 6.00 for Windows, GraphPad Software, La Jolla Calif. USA). For the calculation of KD, the equation for one-site-binding (hyperbola) was used.
(§3) To assess the impact of physiological concentrations of human IgG on the binding capacity of bispecific EGFR/CD16A antigen-binding proteins, binding assays with several bispecific EGFR/CD16A antigen-binding proteins on primary human NK-cells were performed in presence or absence of 10 mg/mL polyclonal human IgG as exemplarily shown in FIG. 10.

[4] = target: T4, Cynomolgus FcRn (FCGRT/B2M) (cynomolgus, UniProt Q8SPV9 24-297; Q8SPW0 21-119, biotin-labelled (Avi-Tag)); assay: SPR (Biacore T200), pH 6.0, biotinylated FcRn captured, multi cycle kinetics, 1:1 model
T4 construct: Purchased; also called FcRn (FCGRT/B2M), Avi-Tag, Biotin-Labeled, (Cynomolgus) Acro Cat #FCM-C82W5
T4 sequence (Q8SPV9 24-297 limits assumed, chain 1 of 2): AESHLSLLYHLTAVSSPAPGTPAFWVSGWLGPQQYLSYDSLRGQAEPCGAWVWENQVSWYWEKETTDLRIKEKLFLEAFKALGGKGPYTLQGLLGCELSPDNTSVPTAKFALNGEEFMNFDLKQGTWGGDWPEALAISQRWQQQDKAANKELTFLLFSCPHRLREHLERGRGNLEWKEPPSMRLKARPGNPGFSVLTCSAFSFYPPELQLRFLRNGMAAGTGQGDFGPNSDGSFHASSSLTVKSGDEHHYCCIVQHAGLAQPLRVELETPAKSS
T4 sequence (Q8SPW0 21-119 limits assumed, chain 2 of 2): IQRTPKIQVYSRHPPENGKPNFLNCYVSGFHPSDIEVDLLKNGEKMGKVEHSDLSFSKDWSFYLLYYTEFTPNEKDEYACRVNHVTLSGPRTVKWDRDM
Procedure: (§4) Binding of EGFR/CD16A antigen-binding proteins to FcRn (human, cynomolgus, murine) was measured on a Biacore T200 Instrument at 25° C. using PBS-T buffer pH 6.0 as running buffer and for dilution (1×Gibco PBS, 0.005% Tween20, titrated to pH 6.0 using 4 M HCl). For this purpose, a Multi Cycle Kinetic experiments was performed using Biotin CAPture Kit (GE Healthcare). For activation of the sensor surface, Biotin CAPture reagent (GE Healthcare) was injected to Flow Cells Fc 1-4 (100 sec, 5 μL/min) resulting in a response of 2100 RU-2800 RU. Biotinylated FcRn of different species were injected to Flow Cell Fc 2 (5 μL/min) resulting in a response of about 8-15 RU. A dilution series of EGFR/CD16A antigen-binding proteins was in (pH 7.4) as running buffer and for dilution. […] Chip was regenerated using Regeneration solution (GE Healthcare) (10 μL/min, Flow cells 1-4, 120 sec). Sensorgrams are referenced by subtraction of zero concentration cycle and subtraction of signals in reference channel Fc 1 (Fc 2-1, Fc 3-1, Fc 4-1). […] Chip was regenerated using Regeneration solution (GE Healthcare) (10 μL/min, Flow cells 1-4, 120 sec). […] Binding kinetics were evaluated by fitting data to 1:1 Binding Model (Rmax and RI locally fitted) using Biacore T200 Evaluation Software.

[5] = target: T3, CD16A on primary human NK-cells; assay: flow cytometry on primary human NK-cells, 37°C, without IgG; mean of 2 experiments
Procedure: as §2, §3

human EGFR on cells [6] = target: T1, human EGFR on cells; assay: cell-based or functional assay; remark: listed apart in the source
Mouse FcRn (FCGRT/B2M) = target: T5, Mouse FcRn (FCGRT/B2M) (mouse, UniProt Q61559 22-297; P01887 21-119, biotin-labelled (Avi-Tag)); assay: SPR (Biacore T200), pH 6.0, biotinylated FcRn captured, multi cycle kinetics, 1:1 model
T5 construct: Purchased; also called murine FcRn; murine FcRn receptor
T5 sequence (looked up): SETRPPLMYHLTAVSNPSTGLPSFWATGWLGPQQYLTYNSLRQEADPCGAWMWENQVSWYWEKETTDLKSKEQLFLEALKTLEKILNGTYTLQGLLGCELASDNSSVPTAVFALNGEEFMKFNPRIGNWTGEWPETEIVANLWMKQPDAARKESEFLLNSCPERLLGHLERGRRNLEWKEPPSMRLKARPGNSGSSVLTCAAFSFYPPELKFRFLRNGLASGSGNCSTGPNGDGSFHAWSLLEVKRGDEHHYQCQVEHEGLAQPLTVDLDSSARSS
T5 sequence (b2m, looked up): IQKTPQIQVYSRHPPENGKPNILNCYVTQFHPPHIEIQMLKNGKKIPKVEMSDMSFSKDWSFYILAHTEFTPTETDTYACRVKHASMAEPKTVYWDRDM
Procedure: as §4

Human FcRn (FCGRT/B2M) = target: T6, Human FcRn (FCGRT/B2M) (human, UniProt P55899 24-297; P61769 21-119, biotin-labelled (site not stated)); assay: as above
T6 construct: Purchased; also called FcRn (FCGRT/B2M), His-Tag, Biotin-Labeled, (Human) HiP Cat #71283
T6 sequence (P55899 24-297 limits assumed, chain 1 of 2): as the sequence (Q8SPV9 24-297 limits assumed, chain 1 of 2) above, with D39N, Q44E, S99G, G189S, N190S, M217L, T269S counted along it
T6 sequence (P61769 21-119 limits assumed, chain 2 of 2): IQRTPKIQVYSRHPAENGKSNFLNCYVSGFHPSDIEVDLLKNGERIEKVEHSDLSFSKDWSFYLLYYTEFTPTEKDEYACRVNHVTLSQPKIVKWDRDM

[7] = target: T3, CD16A on primary human NK-cells; assay: flow cytometry on primary human NK-cells, 37° C., without gammanorm
Procedure: as §2, §3

EGFR-mFc = target: T7, EGFR-mFc; assay: ELISA, coated EGFR-mFc antigen, Bi-scFv-Fc titrated, bound construct detected with biotinylated CD16-Fc and streptavidin-HRP
T7 construct: Coated at 2.5 µg/mL in ELISA; also called monomeric EGFR-mFc; EGFR-mFc antigen
Procedure: as §1

human EGFR on cells [8] = target: T1, human EGFR on cells; assay: cell-based or functional assay; remark: listed apart in the source
human EGFR on cells [9] = target: T1, human EGFR on cells; assay: flow cytometry on A-431 cells, 37°C; mean of 4 experiments
EGFR-antigen (ELISA) = target: T8, EGFR-antigen (ELISA); assay: ELISA, coated EGFR-Fc antigen, aTriFlex titrated (His-tagged analyte, Penta-HIS-HRP per paragraph 126)
T8 construct: also called EGFR-Fc
Procedure: as §1

[10] = target: T3, CD16A on primary human NK-cells; assay: flow cytometry on primary human NK-cells, 37°C, with 10 mg/mL polyclonal human IgG (Gammanorm); with 10 mg/mL polyclonal human IgG (Gammanorm)
CD16A-antigen (ELISA) = target: T9, CD16A-antigen (ELISA); assay: ELISA, coated CD16A-Fc antigen, aTriFlex titrated (His-tagged analyte, Penta-HIS-HRP per paragraph 126)
T9 construct: also called CD16A-Fc
Procedure: as §1

B1: Bi-scFv-Fc_02 (bispecific antibody, human IgG1)
chain: SYVLTQPSSVSVAPGQTATISCGGHNIGSKNVHWYQQRPGQSPVLVIYQDNKRPSGIPERFSGSNSGNTATLTISGTQAMDEADYYCQVWDNYSVLFGGGTKLTVLGGSGGSGGSGGSGGSGGSGGSQVQLVQSGAEVKKPGESLKVSCKASGYTFTSYYMHWVRQAPGQGLEWMGIINPSGGSTSYAQKFQGRVTMTRDTSTSTVYMELSSLRSEDTAVYYCARGSAYYYDFADYWGQGTLVTVSSEPKSCDKTHTCPPCPAPEFEGGPSVFLFPPKPKDTLMISRTPEVTCVVVAVSHEDPEVKFNWYVDGVEVHNAKTKPREEQYNSTYRVVSVLTVLHQDWLNGKEYKCKVSNKALPAPIEKTISKAKGQPREPQVYTLPPSREEMTKNQVSLTCLVKGFYPSDIAVEWESNGQPENNYKTTPPVLDSDGSFFLYSKLTVDKSRWQQGNVFSCSVMHEALHNHYTQKSLSLSPGGGGGSGGGGSQVQLQESGPGLVKPSETLSLTCTVSGGSVSSGSYYWSWIRQPPGKGLEWIGYIYYSGSTNYNPSLKSRVTISVDTSKNQFSLKLSSVTAADTAVYYCARNPISIPAFDIWGQGTMVTVSSGGSGGSGGSGGSGGSGGSQPVLTQPPSVSVAPGKTARITCGGNNIGSKSVHWYQQKPGQAPVLVIYYDSDRPSGIPERFSGSNSGNTATLTISRVEAGDEADYYCQVWDTSSDHVLFGGGTKLTVL
notes: Homodimer: anti-CD16A scFv-Hinge-CH2-CH3 (silenced)-anti-EGFR scFv; also called EGFR/CD16A Bi-scFv-Fc; Bi-scFv-Fc_2
Human EGFR on cells [1]
  EC50 (read off the curve): ~2 nM
huCD16A^RV-His
  EC50 (read off the curve): ~4 nM
Human EGFR on cells [2]
  EC50 [pM] mean, 4 h calcein-release cytotoxicity, A-431 target cells, human NK-cells E:T 5:1: 2.7 pM
[3]
  Kd: 20 nM
[4]
  Kd: 268 nM
[5]
  Kd: 5 nM
Human EGFR on cells [6]
  EC50 [pM] mean, 4 h calcein-release cytotoxicity, HCT-116 target cells, human NK-cells E:T 5:1: 3.8 pM
Mouse FcRn (FCGRT/B2M)
  Kd: 121 nM
Human FcRn (FCGRT/B2M)
  Kd: 410 nM
[7]
  EC50 (read off the curve): ~6 nM
EGFR-mFc
  EC50 (read off the curve): ~0.02 µg/mL

B2: scFv-IgAb_01 (bispecific antibody)
chain 1: QVQLQESGPGLVKPSETLSLTCTVSGGSVSSGSYYWSWIRQPPGKGLEWIGYIYYSGSTNYNPSLKSRVTISVDTSKNQFSLKLSSVTAADTAVYYCARNPISIPAFDIWGQGTMVTVSSASTKGPSVFPLAPSSKSTSGGTAALGCLVKDYFPEPVTVSWNSGALTSGVHTFPAVLQSSGLYSLSSVVVPSSSLGTQTYICNVNHKPSNTKVDKKVEPKSCDKTHTCPPCPAPEFEGGPSVFLFPPKPKDTLMISRTPEVTCVVVAVSHEDPEVKFNWYVDGVEVHNAKTKPREEQYNSTYRVVSVLTVLHQDWLNGKEYKCKVSNKALPAPIEKTISKAKGQPREPQVYTLPPSREEMTKNQVSLTCLVKGFYPSDIAVEWESNGQPENNYKTTPPVLDSDGSFFLYSKLTVDKSRWQQGNVFSCSVMHEALHNHYTQKSLSLSPGGGGGSGGGGSSYVLTQPSSVSVAPGQTATISCGGHNIGSKNVHWYQQRPGQSPVLVIYQDNKRPSGIPERFSGSNSGNTATLTISGTQAMDEADYYCQVWDNYSVLFGGGTKLTVLGGSGGSGGSGGSGGSGGSGGSQVQLVQSGAEVKKPGESLKVSCKASGYTFTSYYMHWVRQAPGQGLEWMGIINPSGGSTSYAQKFQGRVTMTRDTSTSTVYMELSSLRSEDTAVYYCARGSAYYYDFADYWGQGTLVTVSS
chain 2: QPVLTQPPSVSVAPGKTARITCGGNNIGSKSVHWYQQKPGQAPVLVIYYDSDRPSGIPERFSGSNSGNTATLTISRVEAGDEADYYCQVWDTSSDHVLFGGGTKLTVLGQPKAAPSVTLFPPSSEELQANKATLVCLISDFYPGAVTVAWKADSSPVKAGVETTTPSKQSNNKYAASSYLSLTPEQWKSHRSYSCQVTHEGSTVEKTVAPTECS
Human EGFR on cells [8]
  EC50, inhibition of EGF-induced EGFR phosphorylation (phospho-EGFR ELISA, A-431 cells), Exp.2: > 100 µg/mL
Human EGFR on cells [9]
  Kd: 2 nM

B3: EGFR/CD16A/HSA aTriFlex (other)
chain 1: QVQLQESGPGLVKPSETLSLTCTVSGGSVSSGSYYWSWIRQPPGKGLEWIGYIYYSGSTNYNPSLKSRVTISVDTSKNQFSLKLSSVTAADTAVYYCARNPISIPAFDIWGQGTMVTVSSGGSGGSGGSGGSGGSGGSQPVLTQPPSVSVAPGKTARITCGGNNIGSKSVHWYQQKPGQAPVLVIYYDSDRPSGIPERFSGSNSGNTATLTISRVEAGDEADYYCQVWDTSSDHVLFGGGTKLTVLGGSGGSGGSSYVLTQPSSVSVAPGQTATISCGGHNIGSKNVHWYQQRPGQSPVLVIYQDNKRPSGIPERFSGSNSGNTATLTISGTQAMDEADYYCQVWDNYSVLFGGGTKLTVLGGSGGSGGSSYVLTQPSSVSVAPGQTATISCGGHNIGSKNVHWYQQRPGQSPVLVIYQDNKRPSGIPERFSGSNSGNTATLTISGTQAMDEADYYCQVWDNYSVLFGGGTKLTVLGGSGGSGGSEVQLLESGGGLVQPGGSLRLSCAVSGIDLSNYAINWVRQAPGKGLEWIGIIWASGTTFYATWAKGRFTISRDNSKNTVYLQMNSLRAEDTAVYYCARTVPGYSTAPYFDLWGQGTLVTVSSGGSGGSGGSGGSGGSGGSDIQMTQSPSSVSASVGDRVTITCQSSPSVWSNFLSWYQQKPGKAPKLLIYEASKLTSGVPSRFSGSGSGTDFTLTISSLQPEDFATYYCGGGYSSISDTTFGGGTKVEIK
chain 2: QVQLVQSGAEVKKPGESLKVSCKASGYTFTSYYMHWVRQAPGQGLEWMGIINPSGGSTSYAQKFQGRVTMTRDTSTSTVYMELSSLRSEDTAVYYCARGSAYYYDFADYWGQGTLVTVSSGGSGGSGGSQVQLVQSGAEVKKPGESLKVSCKASGYTFTSYYMHWVRQAPGQGLEWMGIINPSGGSTSYAQKFQGRVTMTRDTSTSTVYMELSSLRSEDTAVYYCARGSAYYYDFADYWGQGTLVTVSS
notes: also called EGFR/CD16A aTriFlex
Human EGFR on cells [2]
  EC50 [pM] mean, 4 h calcein-release cytotoxicity, A-431 target cells, human NK-cells E:T 5:1: 5.1 pM
EGFR-antigen (ELISA)
  EC50 (read off the curve): ~7 nM
[10]
  Kd: 456 nM
[5]
  Kd: 50.8 nM
CD16A-antigen (ELISA)
  EC50 (read off the curve): ~4 nM
Human EGFR on cells [6]
  EC50 [pM] mean, 4 h calcein-release cytotoxicity, HCT-116 target cells, human NK-cells E:T 5:1: 17.6 pM
